B1: Hairpin Ribozyme (parent)
chain: GUCCUCUUUCACGUGCGCGUGAAAGAGAGAAGUGAACCAGAGAAACACACGUUGUGGUAUAUUACCUGGUA

Variants of: B1
Experiment: self-cleavage, relative activity (ratio to wild type); higher = more cleavage; co-transcriptional

Variant	self-cleavage
GUCCUCUUUCACAUGCGCGUAAAAGAGAGAAGUGAACCAGAGAAACACACGUUGUGGUAUAUUACCUGGUA [G13A G21A]	0.594
GUCCUCUUUCACAUGCGCGUCAAAGAGAGAAGUGAACCAGAGAAACACACGUUGUGGUAUAUUACCUGGUA [G13A G21C]	0.862
GUCCUCUUUCACAUGCGCGUGAAACAGAGAAGUGAACCAGAGAAACACACGUUGUGGUAUAUUACCUGGUA [G13A G25C]	0.36
GUCCUCUUUCACAUGCGCGUGAAAGAUAGAAGUGAACCAGAGAAACACACGUUGUGGUAUAUUACCUGGUA [G13A G27U]	0.257
GUCCUCUUUCACAUGCGCGUGAAAGAGAAAAGUGAACCAGAGAAACACACGUUGUGGUAUAUUACCUGGUA [G13A G29A]	0.167
GUCCUCUUUCACAUGCGCGUGAAAGAGACAAGUGAACCAGAGAAACACACGUUGUGGUAUAUUACCUGGUA [G13A G29C]	0.153
GUCCUCUUUCACAUGCGCGUGAAAGAGAGAAUUGAACCAGAGAAACACACGUUGUGGUAUAUUACCUGGUA [G13A G32U]	0.205
GUCCUCUUUCACAUGCGCGUGAAAGAGAGAAGUAAACCAGAGAAACACACGUUGUGGUAUAUUACCUGGUA [G13A G34A]	1.19
GUCCUCUUUCACAUGCGCGUGAAAGAGAGAAGUUAACCAGAGAAACACACGUUGUGGUAUAUUACCUGGUA [G13A G34U]	1.22
GUCCUCUUUCACAUGCGCGUGAAAGAGAGAAGUGAACCAAAGAAACACACGUUGUGGUAUAUUACCUGGUA [G13A G40A]	0.33
GUCCUCUUUCACAUGCGCGUGAAAGAGAGAAGUGAACCAGACAAACACACGUUGUGGUAUAUUACCUGGUA [G13A G42C]	0.302
GUCCUCUUUCACAUGCGCGUGAAAGAGAGAAGUGAACCAGAUAAACACACGUUGUGGUAUAUUACCUGGUA [G13A G42U]	0.234
GUCCUCUUUCACAUGCGCGUGAAAGAGAGAAGUGAACCAGAGAAACACACAUUGUGGUAUAUUACCUGGUA [G13A G51A]	0.87
GUCCUCUUUCACAUGCGCGUGAAAGAGAGAAGUGAACCAGAGAAACACACUUUGUGGUAUAUUACCUGGUA [G13A G51U]	0.821
GUCCUCUUUCACAUGCGCGUGAAAGAGAGAAGUGAACCAGAGAAACACACGUUAUGGUAUAUUACCUGGUA [G13A G54A]	0.443
GUCCUCUUUCACAUGCGCGUGAAAGAGAGAAGUGAACCAGAGAAACACACGUUGUAGUAUAUUACCUGGUA [G13A G56A]	0.188
GUCCUCUUUCACAUGCGCGUGAAAGAGAGAAGUGAACCAGAGAAACACACGUUGUGGUAUAUUACCUCGUA [G13A G68C]	0.248
GUCCUCUUUCACAUGCGCGUGAAAGAGAGAAGUGAACCAGAGAAACACACGUUGUGGUAUAUUACCUUGUA [G13A G68U]	0.218
GUCCUCUUUCACAUGCGCGUGAAAGAGAGAAGUGAACCAGAGAAACACACGUUGUGGUAUAUUACCUGCUA [G13A G69C]	0.275
GUCCUCUUUCACAUGCGCGAGAAAGAGAGAAGUGAACCAGAGAAACACACGUUGUGGUAUAUUACCUGGUA [G13A U20A]	0.716
GUCCUCUUUCACAUGCGCGGGAAAGAGAGAAGUGAACCAGAGAAACACACGUUGUGGUAUAUUACCUGGUA [G13A U20G]	0.723
GUCCUCUUUCACAUGCGCGUGAAAGAGAGAAGAGAACCAGAGAAACACACGUUGUGGUAUAUUACCUGGUA [G13A U33A]	0.165
GUCCUCUUUCACAUGCGCGUGAAAGAGAGAAGCGAACCAGAGAAACACACGUUGUGGUAUAUUACCUGGUA [G13A U33C]	0.139
GUCCUCUUUCACAUGCGCGUGAAAGAGAGAAGGGAACCAGAGAAACACACGUUGUGGUAUAUUACCUGGUA [G13A U33G]	0.136
GUCCUCUUUCACAUGCGCGUGAAAGAGAGAAGUGAACCAGAGAAACACACGUCGUGGUAUAUUACCUGGUA [G13A U53C]	0.645
GUCCUCUUUCACAUGCGCGUGAAAGAGAGAAGUGAACCAGAGAAACACACGUUGGGGUAUAUUACCUGGUA [G13A U55G]	0.112

Variant	self-cleavage
GUCCUCUUUCACAUGCGCGUGAAAGAGAGAAGUGAACCAGAGAAACACACGUUGUGGCAUAUUACCUGGUA [G13A U58C]	0.817
GUCCUCUUUCACAUGCGCGUGAAAGAGAGAAGUGAACCAGAGAAACACACGUUGUGGUAUAAUACCUGGUA [G13A U62A]	0.163
GUCCUCUUUCACAUGCGCGUGAAAGAGAGAAGUGAACCAGAGAAACACACGUUGUGGUAUAUUACCUGGAA [G13A U70A]	0.735
GUCCUCUUUCACAUGCGCGUGAAAGAGAGAAGUGAACCAGAGAAACACACGUUGUGGUAUAUUACCUGGGA [G13A U70G]	0.629
GUCCUCUUUCACCUGCGCGUGCAAGAGAGAAGUGAACCAGAGAAACACACGUUGUGGUAUAUUACCUGGUA [G13C A22C]	0.591
GUCCUCUUUCACCUGCGCGUGAAGGAGAGAAGUGAACCAGAGAAACACACGUUGUGGUAUAUUACCUGGUA [G13C A24G]	0.537
GUCCUCUUUCACCUGCGCGUGAAAGCGAGAAGUGAACCAGAGAAACACACGUUGUGGUAUAUUACCUGGUA [G13C A26C]	0.403
GUCCUCUUUCACCUGCGCGUGAAAGAGGGAAGUGAACCAGAGAAACACACGUUGUGGUAUAUUACCUGGUA [G13C A28G]	0.85
GUCCUCUUUCACCUGCGCGUGAAAGAGUGAAGUGAACCAGAGAAACACACGUUGUGGUAUAUUACCUGGUA [G13C A28U]	0.252
GUCCUCUUUCACCUGCGCGUGAAAGAGAGCAGUGAACCAGAGAAACACACGUUGUGGUAUAUUACCUGGUA [G13C A30C]	0.112
GUCCUCUUUCACCUGCGCGUGAAAGAGAGAUGUGAACCAGAGAAACACACGUUGUGGUAUAUUACCUGGUA [G13C A31U]	0.0909
GUCCUCUUUCACCUGCGCGUGAAAGAGAGAAGUGCACCAGAGAAACACACGUUGUGGUAUAUUACCUGGUA [G13C A35C]	0.717
GUCCUCUUUCACCUGCGCGUGAAAGAGAGAAGUGACCCAGAGAAACACACGUUGUGGUAUAUUACCUGGUA [G13C A36C]	0.304
GUCCUCUUUCACCUGCGCGUGAAAGAGAGAAGUGAACCUGAGAAACACACGUUGUGGUAUAUUACCUGGUA [G13C A39U]	0.289
GUCCUCUUUCACCUGCGCGUGAAAGAGAGAAGUGAACCAGCGAAACACACGUUGUGGUAUAUUACCUGGUA [G13C A41C]	0.892
GUCCUCUUUCACCUGCGCGUGAAAGAGAGAAGUGAACCAGGGAAACACACGUUGUGGUAUAUUACCUGGUA [G13C A41G]	0.498
GUCCUCUUUCACCUGCGCGUGAAAGAGAGAAGUGAACCAGUGAAACACACGUUGUGGUAUAUUACCUGGUA [G13C A41U]	0.819
GUCCUCUUUCACCUGCGCGUGAAAGAGAGAAGUGAACCAGAGAAACACCCGUUGUGGUAUAUUACCUGGUA [G13C A49C]	0.115
GUCCUCUUUCACCUGCGCGUGAAAGAGAGAAGUGAACCAGAGAAACACGCGUUGUGGUAUAUUACCUGGUA [G13C A49G]	0.424
GUCCUCUUUCACCUGCGCGUGAAAGAGAGAAGUGAACCAGAGAAACACUCGUUGUGGUAUAUUACCUGGUA [G13C A49U]	0.199
GUCCUCUUUCACCUGCGCGUGAAAGAGAGAAGUGAACCAGAGAAACACACGUUGUGGUUUAUUACCUGGUA [G13C A59U]	0.132
GUCCUCUUUCACCUGCGCGUGAAAGAGAGAAGUGAACCAGAGAAACACACGUUGUGGUAUCUUACCUGGUA [G13C A61C]	0.155
GUCCUCUUUCACCUGCGCGUGAAAGAGAGAAGUGAACCAGAGAAACACACGUUGUGGUAUAUUACCUGGUC [G13C A71C]	1.22
GUCCUCUUUCACCUGAGCGUGAAAGAGAGAAGUGAACCAGAGAAACACACGUUGUGGUAUAUUACCUGGUA [G13C C16A]	0.597
GUCCUCUUUCACCUGCGGGUGAAAGAGAGAAGUGAACCAGAGAAACACACGUUGUGGUAUAUUACCUGGUA [G13C C18G]	0.807
GUCCUCUUUCACCUGCGUGUGAAAGAGAGAAGUGAACCAGAGAAACACACGUUGUGGUAUAUUACCUGGUA [G13C C18U]	0.817

Variant	self-cleavage
GUCCUCUUUCACCUGCGCGUGAAAGAGAGAAGUGAAACAGAGAAACACACGUUGUGGUAUAUUACCUGGUA [G13C C37A]	0.204
GUCCUCUUUCACCUGCGCGUGAAAGAGAGAAGUGAAUCAGAGAAACACACGUUGUGGUAUAUUACCUGGUA [G13C C37U]	0.508
GUCCUCUUUCACCUGCGCGUGAAAGAGAGAAGUGAACCAGAGAAAGACACGUUGUGGUAUAUUACCUGGUA [G13C C46G]	0.164
GUCCUCUUUCACCUGCGCGUGAAAGAGAGAAGUGAACCAGAGAAACAAACGUUGUGGUAUAUUACCUGGUA [G13C C48A]	0.16
GUCCUCUUUCACCUGCGCGUGAAAGAGAGAAGUGAACCAGAGAAACACACGUUGUGGUAUAUUAUCUGGUA [G13C C65U]	0.243
GUCCUCUUUCACCUGCACGUGAAAGAGAGAAGUGAACCAGAGAAACACACGUUGUGGUAUAUUACCUGGUA [G13C G17A]	0.839
GUCCUCUUUCACCUGCCCGUGAAAGAGAGAAGUGAACCAGAGAAACACACGUUGUGGUAUAUUACCUGGUA [G13C G17C]	0.368
GUCCUCUUUCACCUGCGCAUGAAAGAGAGAAGUGAACCAGAGAAACACACGUUGUGGUAUAUUACCUGGUA [G13C G19A]	0.753
GUCCUCUUUCACCUGCGCCUGAAAGAGAGAAGUGAACCAGAGAAACACACGUUGUGGUAUAUUACCUGGUA [G13C G19C]	0.58
GUCCUCUUUCACCUGCGCGUCAAAGAGAGAAGUGAACCAGAGAAACACACGUUGUGGUAUAUUACCUGGUA [G13C G21C]	0.587
GUCCUCUUUCACCUGCGCGUGAAACAGAGAAGUGAACCAGAGAAACACACGUUGUGGUAUAUUACCUGGUA [G13C G25C]	0.356
GUCCUCUUUCACCUGCGCGUGAAAGAAAGAAGUGAACCAGAGAAACACACGUUGUGGUAUAUUACCUGGUA [G13C G27A]	0.314
GUCCUCUUUCACCUGCGCGUGAAAGAGACAAGUGAACCAGAGAAACACACGUUGUGGUAUAUUACCUGGUA [G13C G29C]	0.189
GUCCUCUUUCACCUGCGCGUGAAAGAGAGAAAUGAACCAGAGAAACACACGUUGUGGUAUAUUACCUGGUA [G13C G32A]	0.12
GUCCUCUUUCACCUGCGCGUGAAAGAGAGAAUUGAACCAGAGAAACACACGUUGUGGUAUAUUACCUGGUA [G13C G32U]	0.027
GUCCUCUUUCACCUGCGCGUGAAAGAGAGAAGUGAACCAGACAAACACACGUUGUGGUAUAUUACCUGGUA [G13C G42C]	0.3
GUCCUCUUUCACCUGCGCGUGAAAGAGAGAAGUGAACCAGAUAAACACACGUUGUGGUAUAUUACCUGGUA [G13C G42U]	0.201
GUCCUCUUUCACCUGCGCGUGAAAGAGAGAAGUGAACCAGAGAAACACACAUUGUGGUAUAUUACCUGGUA [G13C G51A]	0.521
GUCCUCUUUCACCUGCGCGUGAAAGAGAGAAGUGAACCAGAGAAACACACGUUUUGGUAUAUUACCUGGUA [G13C G54U]	0.532
GUCCUCUUUCACCUGCGCGUGAAAGAGAGAAGUGAACCAGAGAAACACACGUUGUCGUAUAUUACCUGGUA [G13C G56C]	0.17
GUCCUCUUUCACCUGCGCGUGAAAGAGAGAAGUGAACCAGAGAAACACACGUUGUUGUAUAUUACCUGGUA [G13C G56U]	0.202
GUCCUCUUUCACCUGCGCGUGAAAGAGAGAAGUGAACCAGAGAAACACACGUUGUGAUAUAUUACCUGGUA [G13C G57A]	0.215
GUCCUCUUUCACCUGCGCGUGAAAGAGAGAAGUGAACCAGAGAAACACACGUUGUGCUAUAUUACCUGGUA [G13C G57C]	0.125
GUCCUCUUUCACCUGCGCGUGAAAGAGAGAAGUGAACCAGAGAAACACACGUUGUGGUAUAUUACCUUGUA [G13C G68U]	0.193

From the RNAGym collection of RNA variant scans (doi:10.7554/elife.80360)
